Experimental data published in patent US20160152995A1, “METHODS AND COMPOSITIONS TO IMPROVE THE SPREAD OF CHEMICAL SIGNALS IN PLANTS” (PIONEER HI-BRED INTERNATIONAL, INC., priority 2013, published 2016).

B1: CsL4.2-01 (protein)
chain: MARLDKSKVINSALELLNEVGIEGLTTRKLAQKLGVEQPTLYWHVKNKRALLDALAIEMHDRHQTHYLPLEGESWQDYLRNFAKSMRRALLSHRDGAKVALGTRWTEQQYETAENMLAFLTQQGFSLENALYATDAVRVFTLGAVLLDQEGQVAKEERETPTTDSMPPLLRQAWELKVHQGAEPAFLFGLELIIAGLEKQLKRESGSHHHHHH
modifications: Sulfonylurea responsive repressor
B2: CsL4.2-17 (protein)
chain: MARLDKSKVINSALELLNEVGIEGLTTRKLAQKLGVEQPTLYWHVKNKRALLDALAIEMMDRHQTHYLPLEGESWQDYLRNFAKSMRCALLSHRDGAKVALGTRWTEQQYETAENMLAFLTQQGFSLENALYATSAVRVFTLGAVLLDQEQQVAKEERETPTTDSMPPLLRQAWELKVHQGAEPAFLFGLELIIAGLEKQLKRESGSHHHHHH
modifications: Sulfonylurea responsive repressor
B3: CsL4.2-12 (protein)
chain: MARLDKSKVINSALELLNEVGIEGLTTRKLAQKLGVEQPTLYWHVKNKRALLDALAIEMHDRHGTHYLPLEGESWQDFLRNFAKSMRRALLSHRDGAKVALGTRWTEQQYETAENMLAFLTQQGFSLENALYATSAVRVFTLGAVLLDQEGQVANEERETPTTDSMPPLLRQAWELKVHQGAEPAFLFGLELIIAGLEKQLKRESGSHHHHHH
modifications: Sulfonylurea responsive repressor
B4: CsL4.2-18 (protein)
chain: MARLDKSKVINSALELLNEVGIEGLTTRKLAQKLGVEQPTLYWHVKNKRALLDALAIEMMDRHQTHYLPLEGESWQDFLRNFAKSMRCALLSHRDGAKVALGTRWTEQQYETAENMLAFLTQQGFSLENALYATSAVRVFTLGAVLLDQEQQVAKEERETPTPDRMPPLLRQAWELKVHQGAEPAFLFGLELLIAGLEKQLKRESGSHHHHHH
modifications: Sulfonylurea responsive repressor
B5: CsL4.2-27 (protein)
chain: MARLDKSKVINSALELLNEVGIEGLTTRKLAQKLGVEQPTLYWHVKNKRALLDALAIEMMDRHQTHYLPLEGESWQDFLRNFAKSMRCALLSHRDGAKVSLGTRWTEQQYETAENMLAFLTQQGFSLENALYATDAVRVFTLGAVLLDQEQQVAKEERETPTPDRMPPLLQQAWELKEHQGAEPAFLFGLELIIAGLEKQLKRDSGSHHHHHH
modifications: Sulfonylurea responsive repressor
B6: CsL4.2-11 (protein)
chain: MARLDKSKVINSALELLNEVGIEGLTTRKLAQKLGVEQPTLYWHVKNKRALLDALAIEMHDRHGTHYLPLEGESWQDYLRNFAKSMRRALLSHRDGAKVSLGTRWTEQQYETAENMLAFLTQQGFSLENALYATSAVRVFTLGAVLLDQEQQVAKEERETPTTDSMPPLLRQAWELKEHQGAEPAFLFGLELIIAGLEKQLXRESGSHHHHHH
modifications: not fully specified; Sulfonylurea responsive repressor; VARIANT 202: Xaa = Any Amino Acid
B7: CsL4.2-20: Chlorsulfuron (Cs) repressor, top hit of library CsL4.2 (protein)
chain: MARLDKSKVINSALELLNEVGIEGLTTRKLAQKLGVEQPTLYWHVKNKRALLDALAIEMHDRHQTHYLPLEGESWQDFLRNFAKSMRLALLSHRDGAKVSLGTRWTEQQYETAENMLAFLTQQGFSLENALYATDAVRVFTLGAVLLDQEQQVAKEERETPTPDSMPPLLRQAWELKVHQGAEPAFLFGLELIIAGLEKQLKRESGS
modifications: Sulfonylurea responsive repressor

Tested on: E. coli assay strain Km3
Assay: Liquid B-galactosidase assays of chlorsulfuron repressor hits (induction and repression)
Details: CsL4.2 hits; for F. IND = fold induction (IND/REP) (B-galactosidase): 20 ppb Cs vs no inducer; for IND = induction with 20 ppb CS (B-galactosidase) / REP = repression in absence of inducer (B-galactosidase): liquid B-galactosidase assay; for REP = repression in absence of inducer (B-galactosidase): no inducer
Procedure: In order to create new diversity for shuffling the top clone from CsL3 was subjected to error prone PCR mutagenesis using Mutazyme (Stratagene). The mutated PCR product encoding the CsR ligand binding domain was inserted into library expression vector pVER7334 as a Sac1 to Asc1 fragment, transformed into library strain Km3 and plated onto LB+40 ug/ml Kanamycin and 50 ug/ml Carbenecillin. Approximately 10,000 colonies were then replica plated onto M9 Xgal assay medium +/−20 ppb Cs. Putative hits were then re-arrayed and replica plated onto the same assay medium. Performance was gauged by the level of blue colony color after 24 hrs incubation on inducer (induction) and 72 hrs incubation without inducer (repression). The top hits were then subjected to liquid B-galactosidase assays for quantitative assessment (Table 21).
Seventh round library CsL4.2 was designed based on the best diversity from CsL3 and CsL3-MTZ library screens (Table 14). The library was assembled with oligonucleotides shown below in Table 22. The first and last primers were used as rescue primers. CsL4.2 included a C-terminal 6×His-tag extension to facilitate protein purification. The library was assembled and cloned into vector pVER7334 Sac1 to Asc1, transformed into library assay strain Km3 and plated onto LB+40 ug/m1 Kanamycin and 50 ug/ml carbenecillin. Approximately 8,000 colonies were re-arrayed into 384-well format and replica plated onto M9 Xgal assay medium +/−2 ppb Cs. Putative hits were re-arrayed in 96-well format onto the same media for re-testing. Confirmed hits were then tested for induction and repression aspects in liquid culture using B-galactosidase assays.
Mutagenesis reactions were transformed into E. coli assay strain Km3 and plated onto LB+50 ug/ml Carbenecillin. Colonies were then re-arrayed into 384 well format and replica plated onto M9 Xgal assay medium +/−5 ppb Chlorsulfuron. Putative hits were then re-arrayed and analyzed by B-galactosidase assays relative to the parent clones (FIG. 10).

Molecule | F. IND = fold induction (IND/REP) (B-galactosidase) | IND = induction with 20 ppb CS (B-galactosidase) | REP = repression in absence of inducer (B-galactosidase)
B1 | 9.8 | 3.8 | 0.4
B2 | 9.7 | 3.1 | 0.3
B3 | 9.5 | 6.4 | 0.7
B4 | 9.3 | 6.8 | 0.7
B5 | 9.1 | 3.2 | 0.4
B6 | 8.9 | 4.8 | 0.5
B7 | – | 7.4 | 0.2
